From paper PMC7835349 (Communications Biology, 2021)
Where “and” joins values, the source holds several entries; their conditions need not be identical. Identical values can stand only once.

Assays:
[1] = In vitro release of AZD4320 from dendrimer conjugates in PBS pH 7.4, 37 °C; conditions: for Cummulative Release % / Mean % Released: PBS 37 °C
Experimental: In vitro release half-life was calculated by least squares fitting to a 1st order release model.
AZD4320 release kinetics were determined in vitro under physiological conditions.
Nanoparticles were suspended in phosphate buffered saline (PBS) pH7.4 or rat plasma with 5%
HEPES in HPLC vials and sample temperature maintained to 37 °C using a water bath with
continuous stirring of the sample provided by iChem explorer unit. Periodically, 5-10 µL of
sample was injected onto the column (Acquity UPLC BEH shield RP18 1.7 µm, 4.6 x 30 mm,
Waters), bracketed by DMA to re-dissolve any precipitated AZD4320. The percent release was
calculated by comparing unconjugated AZD4320 peak area to total unconjugated + dendrimer-
conjugated AZD4320 peak areas. The half-life was calculated by least squares fitting to a 1st

[2] = system: luciferase-tagged Ri-1 tumour cells; test: Disseminated luciferase-tagged Ri-1 DLBCL model (bioluminescence); type: in vivo, C.B-17 SCID mouse
Experimental: Ten million luciferase-tagged Ri-1 tumour cells were injected intravenously in the tail vein of C.B.−17 SCID female mice in a volume of 0.1 ml. Tumour burden (determined by Xenogen IVIS imaging), body weight and health condition were recorded twice weekly for the duration of the study. For Xenogen imaging, mice received an intraperitoneal administration of 150 mg/kg D- Luciferin 10 to 15 minutes prior to imaging. Imaging was performed under isoflurane anaesthesia and data analyzed using Living Image software (Xenogen). Statistical significance was evaluated using non-parametric, unpaired, two-tailed t-test.

With AZD4320-MIDA-PEG2100 [AZD0466] the “Cummulative Release %” value ([1]; 19.40 h, Replicate 2) was 41.10%, the “Cummulative Release %” value ([1]; 19.56 h, Replicate 3) was 42.30% and the “Cummulative Release %” value ([1]; 20.18 h, Replicate 1) was 40.20%. The “Cummulative Release %” value ([1]; 20.33 h, Replicate 2) was 43.40%, the “Cummulative Release %” value ([1]; 20.48 h, Replicate 3) was 44.87% and the “Cummulative Release %” value ([1]; 21.10 h, Replicate 1) was 42.52%. The “Cummulative Release %” value ([1]; 21.25 h, Replicate 2) was 45.67%, the “Cummulative Release %” value ([1]; 21.41 h, Replicate 3) was 46.38% and the “Cummulative Release %” value ([1]; 22.03 h, Replicate 1) was 45.50%. The “Cummulative Release %” value ([1]; 22.18 h, Replicate 2) was 47.56%, the “Cummulative Release %” value ([1]; 22.33 h, Replicate 3) was 48.29% and the “Cummulative Release %” value ([1]; 22.95 h, Replicate 1) was 46.44%. For the same substance, the “Cummulative Release %” value ([1]; 23.10 h, Replicate 2) was 48.78%, the “Cummulative Release %” value ([1]; 23.88 h, Replicate 1) was 47.76% and the “Cummulative Release %” value ([1]; 24.03 h, Replicate 2) was 50.99%. For the same substance, the “Cummulative Release %” value ([1]; 24.80 h, Replicate 1) was 50.26%, the “Cummulative Release %” value ([1]; 24.95 h, Replicate 2) was 53.17% and the “Mean % Released” value ([1]; mean time 0.90 h) was 2.53%. The “Mean % Released” value ([1]; mean time 1.82 h) was 4.57%, the “Mean % Released” value ([1]; mean time 2.75 h) was 7.00% and the “Mean % Released” value ([1]; mean time 3.67 h) was 9.31%. For the same substance, the “Mean % Released” value ([1]; mean time 4.60 h) was 11.59%, the “Mean % Released” value ([1]; mean time 5.52 h) was 13.62% and the “Mean % Released” value ([1]; mean time 6.45 h) was 15.73%. For the same substance, the “Mean % Released” value ([1]; mean time 7.37 h) was 17.14%, the “Mean % Released” value ([1]; mean time 8.30 h) was 19.07% and the “Mean % Released” value ([1]; mean time 9.23 h) was 20.98%. For the same substance, the “Mean % Released” value ([1]; mean time 10.15 h) was 22.98%, the “Mean % Released” value ([1]; mean time 11.08 h) was 25.17% and the “Mean % Released” value ([1]; mean time 12.00 h) was 26.61%. The “Mean % Released” value ([1]; mean time 12.93 h) was 28.93%, the “Mean % Released” value ([1]; mean time 13.85 h) was 30.40% and the “Mean % Released” value ([1]; mean time 14.78 h) was 32.26%. For the same substance, the “Mean % Released” value ([1]; mean time 15.70 h) was 34.17%, the “Mean % Released” value ([1]; mean time 16.63 h) was 35.66% and the “Mean % Released” value ([1]; mean time 17.55 h) was 37.54%. For the same substance, the “Mean % Released” value ([1]; mean time 18.48 h) was 39.72%, the “Mean % Released” value ([1]; mean time 19.40 h) was 41.27% and the “Mean % Released” value ([1]; mean time 20.33 h) was 42.83%. The “Mean % Released” value ([1]; mean time 21.25 h) was 44.86%, the “Mean % Released” value ([1]; mean time 22.18 h) was 47.12% and the “Mean % Released” value ([1]; mean time 23.03 h) was 47.61%. The “Mean % Released” value ([1]; mean time 23.95 h) was 49.38%, the “Mean % Released” value ([1]; mean time 24.88 h) was 51.72% and the “In vitro release half-life (t1/2) of AZD4320” value ([1]; PBS pH 7.4, 37 °C, first order fit) was 25.5 h. For the same substance, the “Raw bioluminescence counts in individual animals” value (“Raw bioluminescence counts” below) ([2]; AZD0466 34 mg/kg (10mg/kg AZD4320), day 1) was 1011000 counts and 1455000 counts and 962000 counts and 1223000 counts and 856300 counts, the “Raw bioluminescence counts” value ([2]; AZD0466 34 mg/kg (10mg/kg AZD4320), day 4) was 1131000 counts and 1477000 counts and 863000 counts and 1453000 counts and 1099000 counts and the “Raw bioluminescence counts” value ([2]; AZD0466 34 mg/kg (10mg/kg AZD4320), day 8) was 2077000 counts and 2641000 counts and 963600 counts and 3688000 counts and 1848000 counts. The “Raw bioluminescence counts” value ([2]; AZD0466 34 mg/kg (10mg/kg AZD4320), day 11) was 2663000 counts and 3475000 counts and 794700 counts and 3942000 counts and 2369000 counts, the “Raw bioluminescence counts” value ([2]; AZD0466 34 mg/kg (10mg/kg AZD4320), day 15) was 3909000 counts and 5355000 counts and 1268000 counts and 8178000 counts and 3745000 counts and the “Raw bioluminescence counts” value ([2]; AZD0466 103 mg/kg (30mg/kg AZD4320), day 1) was 1023000 counts and 885100 counts and 876200 counts and 2011000 counts and 1243000 counts. For the same substance, the “Raw bioluminescence counts” value ([2]; AZD0466 103 mg/kg (30mg/kg AZD4320), day 4) was 712200 counts and 758000 counts and 861600 counts and 963300 counts and 1088000 counts, the “Raw bioluminescence counts” value ([2]; AZD0466 103 mg/kg (30mg/kg AZD4320), day 8) was 888700 counts and 911000 counts and 1080000 counts and 921400 counts and 1303000 counts and the “Raw bioluminescence counts” value ([2]; AZD0466 103 mg/kg (30mg/kg AZD4320), day 11) was 687900 counts and 678400 counts and 868400 counts and 651900 counts and 817800 counts. For the same substance, the “Raw bioluminescence counts” value ([2]; AZD0466 103 mg/kg (30mg/kg AZD4320), day 15) was 1023000 counts and 956600 counts and 1075000 counts and 787100 counts and 1030000 counts, the “Raw bioluminescence counts” value ([2]; AZD0466 340 mg/kg (100mg/kg AZD4320), day 1) was 851500 counts and 1286000 counts and 895800 counts and 1120000 counts and 1558000 counts and the “Raw bioluminescence counts” value ([2]; AZD0466 340 mg/kg (100mg/kg AZD4320), day 4) was 675300 counts and 732000 counts and 775100 counts and 773400 counts and 665700 counts. For the same substance, the “Raw bioluminescence counts” value ([2]; AZD0466 340 mg/kg (100mg/kg AZD4320), day 8) was 696900 counts and 758300 counts and 613100 counts and 757700 counts and 754200 counts, the “Raw bioluminescence counts” value ([2]; AZD0466 340 mg/kg (100mg/kg AZD4320), day 11) was 628500 counts and 817700 counts and 761500 counts and 744200 counts and 883400 counts and the “Raw bioluminescence counts” value ([2]; AZD0466 340 mg/kg (100mg/kg AZD4320), day 15) was 1033000 counts and 1121000 counts and 987400 counts and 873700 counts and 861800 counts. The “anti-tumour activity” value ([2]; disseminated Ri-1, once weekly IV) was “dose-dependent anti-tumour activity”.
